Earlier results in publication PMC11442857.

Molecular target: Bovine serum albumin, fatty-acid-free (FAF-BSA) (UniProt P02769)
Assay: Analytical ultracentrifugation, sedimentation equilibrium
Conditions: pH 7.2, 10 °C, PBS (concentration not stated)

Chain of UniProt P02769 (P02769 whole entry): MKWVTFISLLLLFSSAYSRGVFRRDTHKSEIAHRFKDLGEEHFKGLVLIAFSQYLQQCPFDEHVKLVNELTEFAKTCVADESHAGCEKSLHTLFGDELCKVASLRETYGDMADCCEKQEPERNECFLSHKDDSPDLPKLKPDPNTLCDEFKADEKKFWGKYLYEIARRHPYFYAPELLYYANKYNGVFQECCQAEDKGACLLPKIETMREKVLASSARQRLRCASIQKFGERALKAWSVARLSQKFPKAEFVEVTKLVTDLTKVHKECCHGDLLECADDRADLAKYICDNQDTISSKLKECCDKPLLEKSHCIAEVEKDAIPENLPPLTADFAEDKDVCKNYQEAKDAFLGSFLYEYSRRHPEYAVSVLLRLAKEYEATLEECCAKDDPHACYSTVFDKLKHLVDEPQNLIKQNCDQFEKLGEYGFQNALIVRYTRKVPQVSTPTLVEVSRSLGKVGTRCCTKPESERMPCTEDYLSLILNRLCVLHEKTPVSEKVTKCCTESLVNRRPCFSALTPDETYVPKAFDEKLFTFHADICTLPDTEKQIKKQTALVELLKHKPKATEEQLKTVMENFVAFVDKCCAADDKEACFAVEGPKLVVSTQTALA

Kd dimer: 4.5 mM
Substance: Bovine serum albumin, fatty-acid-free (FAF-BSA)
